# Source: paper doi:10.1101/2023.12.10.570967
# Target: Drosophila Eggless/SetDB1 tandem Tudor domains (3TD, aa 444-700), wild type (Drosophila) (UniProt Q32KD2)
# Assay: SPR
# Sequence of UniProt Q32KD2 (Q32KD2 444-700): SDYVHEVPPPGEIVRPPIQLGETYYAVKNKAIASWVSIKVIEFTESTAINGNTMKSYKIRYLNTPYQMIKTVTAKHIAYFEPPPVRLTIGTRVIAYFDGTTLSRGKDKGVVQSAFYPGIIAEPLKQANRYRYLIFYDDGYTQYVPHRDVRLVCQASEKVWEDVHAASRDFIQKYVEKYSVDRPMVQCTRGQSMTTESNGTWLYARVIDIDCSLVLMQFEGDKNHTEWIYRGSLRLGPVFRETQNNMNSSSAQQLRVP
substance,measurement,value
H3K14ac peptide,Kd,486 µM
